# FireProtDB
# Where “and” joins values, the source holds several entries; their conditions need not be identical. Equal entries are not always repeated.
# Settings: whole UniProt chain shown
# [1] = Escherichia coli (strain K12), pH 7.8, 23 °C, Urea, Fluorescence, Tris-HCl 10 mM, NaCl 100 mM, reversible: yes
# [2] = Geobacillus stearothermophilus, pH 5.4, 25 °C, Thermal, CD, acetate 20 mM, NaCl 100 mM, reversible: yes
# [3] = Geobacillus stearothermophilus, pH 5.4, 25 °C, Urea, CD, acetate 20 mM, NaCl 100 mM, reversible: yes
# [4] = Geobacillus stearothermophilus, pH 5.4, 25.15 °C, Urea, CD, sodium acetate 10 mM, Nacl 100 mM
# [5] = Geobacillus stearothermophilus, pH 5.4, Thermal, CD, acetate 20 mM, NaCl 100 mM, reversible: yes
# [6] = Geobacillus stearothermophilus, pH 5.45, 10 °C, GdnHCl, CD, sodium acetate,sodium sulfate
# [7] = Geobacillus stearothermophilus, pH 5.45, 25 °C, Urea, CD, Sodium phosphate 20 mM, NaCl 100 mM, reversible: Yes
# [8] = Geobacillus stearothermophilus, pH 5.45, 25 °C, Urea, CD, sodium phosphate 10 mM, NaCl 100 mM, reversible: Yes
# [9] = Geobacillus stearothermophilus, pH 5.45, 25 °C, Urea, CD, sodium phosphate 20 mM, sodium chloride 100 mM, reversible: yes
# [10] = Geobacillus stearothermophilus, pH 5.45, 25 °C, Urea, Fluorescence, Sodium phosphate 20 mM, NaCl 100 mM, reversible: Yes
# [11] = Geobacillus stearothermophilus, pH 5.5, 25 °C, Urea, CD, NaAc 20 mM, NaCl 100 mM
# [12] = Geobacillus stearothermophilus, pH 5.5, 25 °C, Urea, CD, Sodium phosphate 20 mM, NaCl 100 mM
# [13] = Geobacillus stearothermophilus, pH 8, 25 °C, GdnHCl, CD, Tris-HCl 20 mM, sodium chloride 100 mM, reversible: yes
protein,measurement,setting,value
"Co-chaperonin GroES wild type, P0A6F9 (protein) MNIRPLHDRVIVKRKEVETKSAGGIVLTGSAAAKSTRGEVLAVGNGRILENGEVKPLDVKVGDIVIFNDGYGVKSEKIDNEEVLIMSESDILAIVEA",denaturant m value,[1],1.83 kcal/mol/M
same,unfolding free energy,[1],5.77 kcal/mol
"Glutamine-binding periplasmic protein wild type, P0AEQ3 (protein) MKSVLKVSLAALTLAFAVSSHAADKKLVVATDTAFVPFEFKQGDKYVGFDVDLWAAIAKELKLDYELKPMDFSGIIPALQTKNVDLALAGITITDERKKAIDFSDGYYKSGLLVMVKANNNDVKSVKDLDGKVVAVKSGTGSVDYAKANIKTKDLRQFPNIDNAYMELGTNRADAVLHDTPNILYFIKTAGNGQFKAVGDSLEAQQYGIAFPKGSDELRDKVNGALKTLRENGTYNEIYKKWFGTEPK",Tm,"Escherichia coli (strain K12), pH 8.3, Thermal, Absorbance, Tris-HCl 10 mM",63.1 °C and 66.2 °C
"Large ribosomal subunit protein bL9 wild type, P02417 (protein) MKVIFLKDVKGKGKKGEIKNVADGYANNFLFKQGLAIEATPANLKALEAQKQKEQRQAAEELANAKKLKEQLEKLTVTIPAKAGEGGRLFGSITSKQIAESLQAQHGLKLDKRKIELADAIRALGYTNVPVKLHPEVTATLKVHVTEQK",unfolding free energy,"Geobacillus stearothermophilus, pH 5.4, 25 °C, GdnHCl, CD, phosphate 10 mM, NaCl 100 mM, reversible: yes",2.1 kcal/mol
same,heat capacity change of unfolding,[2],0.38 kcal/mol/K
same,unfolding free energy,[2],2.18 kcal/mol
same,denaturant m value,[3],0.48 kcal/mol/M
same,denaturant midpoint (higher = more stable),[3],3.96 M
same,unfolding free energy,[3],1.9 kcal/mol
same,denaturant m value,[4],0.66 kcal/mol/M
same,denaturant midpoint (higher = more stable),[4],6.5 M
same,unfolding free energy,[4],4.3 kcal/mol
same,Tm,[5],65.3 °C
same,heat capacity change of unfolding,[5],0.38 kcal/mol/K
same,unfolding enthalpy (van 't Hoff),[5],26.3 kcal/mol
same,denaturant m value,[6],1.52 kcal/mol/M
same,unfolding free energy,[6],6.02 kcal/mol
same,unfolding free energy,"Geobacillus stearothermophilus, pH 5.45, 25 °C, Thermal, CD, Sodium phosphate 20 mM, NaCl 100 mM, reversible: Yes (>90%)",3.82 kcal/mol
same,denaturant m value,[7],1.32 kcal/mol/M
same,unfolding free energy,[7],3.32 kcal/mol
same,denaturant m value,[8],0.66 kcal/mol/M
same,unfolding free energy,[8],4.17 kcal/mol
same,denaturant m value,[9],1.21 kcal/mol/M
same,unfolding free energy,[9],3.91 kcal/mol
same,denaturant m value,[10],1.24 kcal/mol/M
same,unfolding free energy,[10],3.84 kcal/mol
same,denaturant m value,[11],0.66 kcal/mol/M
same,unfolding free energy,[11],4.3 kcal/mol and 5.85 kcal/mol
same,denaturant m value,[12],0.66 kcal/mol/M
same,unfolding free energy,[12],4.3 kcal/mol
same,Tm,"Geobacillus stearothermophilus, pH 7.4, Thermal, CD, Tris 10 mM, NaCl 100 mM, reversible: yes(95-100%)",77 °C
same,denaturant m value,[13],2.24 kcal/mol/M
same,unfolding free energy,[13],5.9 kcal/mol
